Measurements taken from patent publication US12653863B2, “FGF21 compositions for treatment or prevention of neovascularization of the eye and methods therefor” (Children's Medical Center Corporation, priority 2017, dated 2026).

Experiments:
HRMEC = HRMEC wound healing and cell viability assays; format: cell-based; details: in vitro, FIG. 7C-7D
661W cells = assay: 661W photoreceptor cells with paraquat-induced oxidative stress; format: cell-based; details: PQ-treated 661W, co-treatment with 500 ng/ml PF-05231023, perifosine 5 or 10 μM
Description: Photoreceptors (661W) cell culture: Photoreceptor 661W cells were cultured at 37° Celsius, 5% CO2 in a humidified atmosphere in Dulbecco's modified Eagle's medium (DMEM, #1196502, Gibco) supplemented with 10% fetal bovine serum (#S12450, Atlanta Biologicals) and 1% antibiotic/antimycotic solution. An equal number of cells per well was plated on a 6-well dish. Oxidative stress was induced with 0.5 mM paraquat (PQ, Sigma, #856177) for 1 hour at 37° Celsius. The culture media were changed and the cells were treated with vehicle (PBS) or 500 ng/ml PF-05231023 for 24 hours. Cells were collected for protein and RNA.
Real-time PCR: Retinas or 661W cells were lysed with QIAzol lysis reagent and incubated on ice for 15 minutes. 20% chloroform was added and incubated for 5 minutes at room temperature. […] Quantitative analysis of gene expression was generated using an Applied Biosystems 7300 Sequence Detection System with the SYBR Green Master mix kit and gene expression was calculated relative to Cyclophilin A ((5′-CAG ACG CCA CTG TCG CTT T-3′ (SEQ ID NO: 30); 5′-TGTCTTTGGAACTTTGTCTGCAA-3′(SEQ ID NO: 31)) (retinas) or β-actin ((5′-CGGTTCCGATGCCCTGAGGCTCTT-3′ (SEQ ID NO: 48), 5′-CGTCACACTTCATGATGGAATTGA-3′ (SEQ ID NO: 49)) (photoreceptor 661W cells) using the ΔΔCt method. Each sample was repeated in triplicate. […]

[1] = system: hyperglycemic mouse neonates; assay: streptozotocin (STZ)-induced hyperglycemic ROP mouse model; format: in vivo
From the text: Hyperglycemia is a recently described risk factor for retinopathy of prematurity (ROP) in premature infants. In streptozotocin (STZ)-induced hyperglycemic ROP mouse model, retinal vascular development was confirmed as delayed. Specifically, FGF21 deficiency delayed normal retinal vascular network formation and worsened hyperglycemic ROP in such mice. Native (nFGF21) and long-acting FGF21 (PF-05231023) treatment were both observed to have promoted retinal vessel growth in hyperglycemic ROP. The protection of FGF21 observed was also confirmed as dependent upon adiponectin (APN).

[2] = system: mice having oxygen-induced retinopathy; assay: mouse oxygen-induced retinopathy (OIR), retinal whole mounts and retinal qPCR at P17; format: in vivo; details: WT OIR mice, i.p. daily P12-P16, P17 retinal whole mounts, vs vehicle
Description: Oxygen-induced retinopathy: mice were exposed to 75% oxygen from P7 to P12. The mice were then returned to room air until P17 (Connor et al., 2009; Smith et al., 1994). High oxygen led to vessel loss and the relative hypoxia induced neovascularization which reached to maximum at P17 (Smith et al., 1994). Both genders of mouse pups were used with body weight ranging from 5.5 to 7 grams (Connor et al., 2009). The mice were randomly assigned to either native FGF21 (5 mg/kg, twice per day) or long-acting FGF21 (1 mg/kg PF-05231023) or phosphate buffered saline (PBS). The mice were intraperitoneally injected daily from P12 to P16. For the intra-vitreal injection of PF-05231023 (0.5 μl 10 μg/μl stock per eye) was delivered using 10 μl syringe with 35G needle (World Precision Instruments, Inc.) at P12. The contralateral eye was injected with vehicle control. At P17, retinal neovascularization was quantified (Connor et al., 2009; Smith et al., 1994). […] Retinal neovascularization was quantified as previously reported (Connor et al., 2009). Percentages of neovascularization were calculated by comparing the number of pixels in the neovascular areas with the total number of pixels in the retina. n is the number of eyes quantified. […]

[3] = Huang et al., 2013; cited from earlier work

Molecule: O=C(COc1ccc(C(=O)c2ccccc2)cc1)NC1CCN(Cc2ccccc2)CC1 [AdipoRon]
- endothelial cell function (wound healing, viability) (HRMEC): inhibited endothelial cell function in vitro

Molecule: CCCCCCCCCCCCCCCCCCOP(=O)([O-])OC1CC[N+](C)(C)CC1 [perifosine]
- induction of NRF2 expression by PF-05231023 (661W cells): dose-dependently inhibited

B1: Native FGF21: native FGF21 (nFGF21), unmodified FGF21 with short half-life (protein, UniProt Q9NSA1 29-209, looked up)
Fibroblast growth factor 21: HPIPDSSPLLQFGGQVRQRYLYTDDAQQTEAHLEIREDGTVGGAADQSPESLLQLKALKPGVIQILGVKTSRFLCQRPDGALYGSLHFDPEACSFRELLLEDGYNVYQSEAHGLPLHLPGNKSPHRDPAPRGPARFLPLPGLPPALPEPPGILAPQPPDVGSSDPLSMVGPSQGRSPSYAS
- retinal vascular growth [1]: improved retinal vascular growth
- retinal neovascularization [2]: did not affect neovascularization
- half-life [3]: 24 min
